This test concerns the target apoE cleavage enzyme (chymotrypsin-like serine protease; in mouse brain lysate or roughly/partially purified). The test is described as follows: cell-based or functional assay.
On to AAPF [Ala-Ala-Pro-Phe (SEQ ID NO:1)], for which the “inhibition of apoE cleavage enzyme activity (chromogenic assay, 1 mM Ala-Ala-Pro-Phe-p-nitroanilide; 6 mM peptide; 20 hour incubation)” value was 67%. With AAAAPF [Ala-Ala-Ala-Ala-Pro-Phe (SEQ ID NO:4)], the “inhibition of apoE cleavage enzyme activity (chromogenic assay, 1 mM Ala-Ala-Pro-Phe-p-nitroanilide; 6 mM peptide; 20 hour incubation)” value was 58%. The result for AAPL [Ala-Ala-Pro-Leu (SEQ ID NO:3)] reads 56%.

The values are drawn from patent US20020147999A1 (J DAVID GLADSTONE INSTITUTES, published 2002).
